Experimental data reported in the supplement of paper PMC9112550, “Optimization of the antimicrobial peptide Bac7 by deep mutational scanning” (BMC Biology, 2022).

test system: Escherichia coli TOP10; test: shrunken log2 fold change of peptide-encoding DNA abundance (4.5 h post-induction vs induction); higher = less antimicrobial activity (less host growth inhibition); details: time post-induction: 4.5 h; library: site-saturation at positions 5, 18, 19, 20
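Also: peptides expressed intracellularly from a pBAD plasmid library in pooled LB shake-flask culture, induced with 0.3% L-arabinose, DNA abundance read by NGS, three biological replicates, DESeq2 with apeglm shrinkage.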

Sequence | shrunken log2 fold change
RRIRVRPPRLPRPRPRPMMEPRP | 0.00705
RRIRVRPPRLPRPRPRPMMFPRP | -0.0953
RRIRVRPPRLPRPRPRPMMHPRP | -0.365
RRIRVRPPRLPRPRPRPMMMPRP | -0.0802
RRIRVRPPRLPRPRPRPMPRPRP | 0.24
RRIRVRPPRLPRPRPRPMRRPRP | 0.392
RRIRVRPPRLPRPRPRPMSHPRP | 0.171
RRIRVRPPRLPRPRPRPMSLPRP | 0.0447
RRIRVRPPRLPRPRPRPNACPRP | 0.215
RRIRVRPPRLPRPRPRPNARPRP | 0.102
RRIRVRPPRLPRPRPRPNDHPRP | -0.302
RRIRVRPPRLPRPRPRPNDRPRP | -0.0172
RRIRVRPPRLPRPRPRPNDVPRP | -0.116
RRIRVRPPRLPRPRPRPNFPPRP | 0.0508
RRIRVRPPRLPRPRPRPNFQPRP | -0.175
RRIRVRPPRLPRPRPRPNGDPRP | -0.187
RRIRVRPPRLPRPRPRPNGVPRP | -0.154
RRIRVRPPRLPRPRPRPNHVPRP | -0.3
RRIRVRPPRLPRPRPRPNLDPRP | -0.0165
RRIRVRPPRLPRPRPRPNLYPRP | -0.563
RRIRVRPPRLPRPRPRPNNDPRP | -0.335
RRIRVRPPRLPRPRPRPNQGPRP | -0.129
RRIRVRPPRLPRPRPRPNQLPRP | -0.188
RRIRVRPPRLPRPRPRPNQPPRP | -0.0412
RRIRVRPPRLPRPRPRPNQWPRP | -0.264

Sequence | shrunken log2 fold change
RRIRVRPPRLPRPRPRPNRNPRP | -0.238
RRIRVRPPRLPRPRPRPNRWPRP | -0.0283
RRIRVRPPRLPRPRPRPNSAPRP | 0.198
RRIRVRPPRLPRPRPRPNTFPRP | -0.521
RRIRVRPPRLPRPRPRPNTHPRP | -0.457
RRIRVRPPRLPRPRPRPNVKPRP | -0.159
RRIRVRPPRLPRPRPRPNYNPRP | -0.76
RRIRVRPPRLPRPRPRPPAQPRP | 0.223
RRIRVRPPRLPRPRPRPPATPRP | 0.18
RRIRVRPPRLPRPRPRPPCDPRP | 0.52
RRIRVRPPRLPRPRPRPPDDPRP | 0.107
RRIRVRPPRLPRPRPRPPDKPRP | 0.265
RRIRVRPPRLPRPRPRPPDSPRP | -0.136
RRIRVRPPRLPRPRPRPPELPRP | 0.186
RRIRVRPPRLPRPRPRPPEVPRP | 0.0599
RRIRVRPPRLPRPRPRPPGVPRP | 0.216
RRIRVRPPRLPRPRPRPPHMPRP | -0.0804
RRIRVRPPRLPRPRPRPPHWPRP | 0.489
RRIRVRPPRLPRPRPRPPIAPRP | 0.322
RRIRVRPPRLPRPRPRPPKPPRP | 0.107
RRIRVRPPRLPRPRPRPPMHPRP | 0.245
RRIRVRPPRLPRPRPRPPMPPRP | 0.368
RRIRVRPPRLPRPRPRPPMSPRP | -0.249
RRIRVRPPRLPRPRPRPPPIPRP | 0.59
RRIRVRPPRLPRPRPRPPQAPRP | 0.0808

Sequence | shrunken log2 fold change
RRIRVRPPRLPRPRPRPPQIPRP | 0.22
RRIRVRPPRLPRPRPRPPQLPRP | 0.0208
RRIRVRPPRLPRPRPRPPSGPRP | 0.208
RRIRVRPPRLPRPRPRPPSIPRP | 0.231
RRIRVRPPRLPRPRPRPPSLPRP | 1.99
RRIRVRPPRLPRPRPRPPSQPRP | 0.125
RRIRVRPPRLPRPRPRPPTEPRP | 0.273
RRIRVRPPRLPRPRPRPPTKPRP | 0.417
RRIRVRPPRLPRPRPRPPTVPRP | 0.167
RRIRVRPPRLPRPRPRPPVEPRP | 0.424
RRIRVRPPRLPRPRPRPPVVPRP | -0.0362
RRIRVRPPRLPRPRPRPQAEPRP | 0.352
RRIRVRPPRLPRPRPRPQAFPRP | 0.0753
RRIRVRPPRLPRPRPRPQALPRP | -0.000718
RRIRVRPPRLPRPRPRPQCAPRP | 0.135
RRIRVRPPRLPRPRPRPQCPPRP | -0.0117
RRIRVRPPRLPRPRPRPQDIPRP | -0.328
RRIRVRPPRLPRPRPRPQEVPRP | -0.186
RRIRVRPPRLPRPRPRPQFKPRP | -0.576
RRIRVRPPRLPRPRPRPQFMPRP | -0.232
RRIRVRPPRLPRPRPRPQFPPRP | -0.28
RRIRVRPPRLPRPRPRPQFWPRP | -0.178
RRIRVRPPRLPRPRPRPQGSPRP | -0.205
RRIRVRPPRLPRPRPRPQHFPRP | 0.0726
RRIRVRPPRLPRPRPRPQHMPRP | -0.23
